Laboratory results reported in patent publication US12594347B2, “Nanoparticulate drug delivery systems” (Duke University, priority 2018, dated 2026).
“And” between values parts separate entries of the source, which are not always exact repeats. Equal entries are not always repeated.

Key:
[1] = molecular target: mouse serum albumin (MSA) (Mus musculus, UniProt P07724); experiment: Isothermal titration calorimetry (VP-ITC) of polypeptide carriers and DOX micelles with mouse albumin; format: binding; conditions: PBS pH 7.4, 37° C.
Experimental: Interaction with albumin. Interaction of CP monomers and micelles with human and mouse albumin was analyzed by isothermal titration calorimetry (ITC).

[2] = Pharmacokinetics of CP-DOX and ABDN-CP-DOX micelles in mice; format: in vivo; conditions: Balb/C mice; for Apparent distribution volume VD / Distribution half-life β t1/2 / Elimination rate constant kg / Plasma clearance CL / Plasma to tissue rate constant kpt / Tissue to plasma rate constant ktp / Area under the curve AUC / Elimination half-life α t1/2: tail vein; for Area under the curve AUC / Elimination half-life α t1/2: plasma DOX
Experimental: The isopropanol extract was then centrifuged (14,000 RPM, 10 min, 4° C.) and 125 uL of the supernatant was loaded onto a black 96-well plate (BD Biosciences) in duplicate.

Canine pharmacokinetics = conditions: dogs
Excerpt: Canine pharmacokinetics and toxicities. […] All procedures and protocols involving care, handling, and dosing for this study were reviewed and approved by the Institutional Animal Care and Use Committee (IACUC) at North Carolina State University College of Veterinary Medicine, which is an AAALAC-accredited facility. The animals' health status were monitored daily by the animal technicians and veterinary staff, paying particular attention for signs of gastrointestinal toxicities including vomiting, diarrhea, lethargy, and inappetence. If noted, supportive care was provided. […] 2 mL blood samples were drawn from jugular vein at 40 s, 15 and 30 min, 2, 4, 8, 24, 48, and 72 h after injection, diluted into 400 μL heparinized PBS (1000 UmL^−1). Sample processing and analysis were performed as with murine pharmacokinetics studies.

[3] = Canine serum chemistry one week after administration; format: in vivo, dogs (beagles and hounds); conditions: dogs
Excerpt: Canine pharmacokinetics and toxicities. […] If noted, supportive care was provided.

[4] = Thermal turbidimetry (transition temperature); format: physicochemical; conditions: PBS (FIG. 8D)
Experimental: Thermal Turbidimetry. Thermal profiles of CPs and CP conjugates were determined by measuring the transition temperature (Tt) over a range of concentrations (5, 10, 25, 50, and 100 uM) in PBS, FBS, and MS using a Cary UV-visible spectrophotometer equipped with temperature controller (Agilent Technologies, CA, USA). […] The transition temperature was defined as the maximum first derivative of the optical density.

[5] = Dynamic and static light scattering; format: physicochemical; conditions: for Rh / Nagg / Rg: PBS; for Nagg / Rg: SLS
Experimental: Light Scattering. Dynamic and static light scattering measurements were performed using an ALV/CGS-3 goniometer system (Germany). […] To study the effect of albumin binding on micellar self-assembly, mouse albumin was added to the samples at 1:1 albumin-CP molar ratio in PBS. Measurements were obtained at 25° C. and 37° C. for angles between 30-150° at 5° increments with each angle consisting of 3 runs and 10 s each at each run. Hydrodynamic radius (Rh) was determined by dynamic light scattering. The radius of gyration (Rg) and the average molecular weight of the particle (MW) were calculated from the slope and intercept of a partial Zimm plot, respectively, using ALV/Dynamic and Static FIT and PLOT software and according. The micelle aggregation number Nagg, or the number of polypeptide chains per nanoparticle, was calculated by dividing the micelle molecular weight by the molecular weight of the polypeptide monomer.
Size and morphology of CP conjugated micelles. The radius and the aggregation number of the self-assembled micelles were determined, in the presence and absence of albumin, by dynamic and static light scattering at 37° C. using an ALV/CGS-3 goniometer system (Germany). Freeze fracture electron microscopy was performed to visualize the micelles and estimate their radius and morphology.

C26 tumors = experiment: Tumor regression and survival, C26 colon cancer model; format: in vivo, Balb/C mice
Experimental: Cell culture and tumor inoculation.
Tumor regression and survival. […] Tumor size and body weight were monitored over a span of two months. Tumor volume was calculated as follows: Volume [mm^3]=length×width 2×π/6. Mice with a tumor volume greater 1000 mm^3 or body weight loss greater than 15% were euthanized.

[6] = printed 'at the dose of 10 mg/kg BW DOX equivalent' (first statement of b160)
[7] = cephalic vein, 27 DOX Equiv/m^−2 BSA or 0.9 mg DOX Equiv/kg BW
[8] = one week after administration, individual subjects

Chain of mouse serum albumin (MSA) (P07724 25-608): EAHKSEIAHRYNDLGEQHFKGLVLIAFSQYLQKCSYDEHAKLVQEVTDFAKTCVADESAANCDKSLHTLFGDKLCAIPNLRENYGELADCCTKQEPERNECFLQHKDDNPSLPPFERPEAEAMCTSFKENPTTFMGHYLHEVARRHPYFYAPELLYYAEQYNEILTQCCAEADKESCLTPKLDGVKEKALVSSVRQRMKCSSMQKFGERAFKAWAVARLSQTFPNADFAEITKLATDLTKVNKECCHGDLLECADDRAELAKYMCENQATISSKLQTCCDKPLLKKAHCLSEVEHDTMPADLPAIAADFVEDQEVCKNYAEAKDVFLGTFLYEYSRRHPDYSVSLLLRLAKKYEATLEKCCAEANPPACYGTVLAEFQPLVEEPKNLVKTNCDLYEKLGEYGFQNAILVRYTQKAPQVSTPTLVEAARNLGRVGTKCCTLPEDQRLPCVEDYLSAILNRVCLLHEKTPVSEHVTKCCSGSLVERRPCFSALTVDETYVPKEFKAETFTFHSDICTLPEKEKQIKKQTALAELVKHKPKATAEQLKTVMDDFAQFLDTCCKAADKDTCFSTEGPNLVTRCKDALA

B1: ABDN-CP-DOX (conjugate)
chain: LAEAKVLANRELDKYGVSDYYKNLINNAKTVEGVKALIDEILAALPVPGAGVPGAGVPGAGVPGAGVPGAGVPGAGVPGAGVPGAGVPGAGVPGAGVPGAGVPGAGVPGAGVPGAGVPGAGVPGAGVPGAGVPGAGVPGAGVPGAGVPGAGVPGAGVPGAGVPGAGVPGAGVPGAGVPGAGVPGAGVPGAGVPGAGVPGAGVPGAGVPGAGVPGAGVPGAGVPGAGVPGAGVPGAGVPGAGVPGAGVPGAGVPGAGVPGAGVPGAGVPGAGVPGAGVPGAGVPGAGVPGAGVPGAGVPGAGVPGAGVPGAGVPGAGVPGAGVPGAGVPGAGVPGAGVPGAGVPGAGVPGAGVPGAGVPGAGVPGAGVPGAGVPGAGVPGAGVPGAGVPGAGVPGAGVPGAGVPGAGVPGAGVPGAGVPGAGVPGAGVPGAGVPGAGVPGAGVPGAGVPGAGVPGAGVPGAGVPGAGVPGAGVPGAGVPGAGVPGAGVPGAGVPGAGVPGAGVPGAGVPGAGVPGAGVPGAGVPGAGVPGAGVPGAGVPGAGVPGAGVPGAGVPGAGVPGAGVPGAGVPGAGVPGAGVPGAGVPGAGVPGAGVPGAGVPGAGVPGAGVPGAGVPGAGVPGAGVPGAGVPGAGVPGAGVPGAGVPGAGVPGAGVPGAGVPGAGVPGAGVPGAGVPGAGVPGAGVPGAGVPGAGVPGAGVPGAGVPGAGVPGAGVPGAGVPGAGVPGAGVPGAGVPGAGVPGAGVPGAGVPGAGVPGAGVPGAGCGGCGGCGGCGGCGGCGGCGGCGG
binding stoichiometry N [1]: 1.01±0.00 | Apparent distribution volume VD ([2]; 10 mg/kg BW DOX equivalent): 0.34 ± 0.01 mL/g | Distribution half-life β t1/2 ([2]; 10 mg/kg BW DOX equivalent): 0.207 ± 0.0233 h | Elimination rate constant kg ([2]; 10 mg/kg BW DOX equivalent): 0.10 ± 0.01 h⁻¹ | Plasma clearance CL ([2]; 10 mg/kg BW DOX equivalent): 0.013 ± 0.000 mL/h/g | Plasma to tissue rate constant kpt ([2]; 10 mg/kg BW DOX equivalent): 2.08 ± 0.27 h⁻¹ | Tissue to plasma rate constant ktp ([2]; 10 mg/kg BW DOX equivalent): 1.22 ± 0.13 h⁻¹ | Area under the curve AUC ([2]; 10 mg/kg BW DOX equivalent): 1400.4 ± 34.2 µM·h | Elimination half-life α t1/2 ([2]; 10 mg/kg BW DOX equivalent): 18.3 ± 0.6 h | Apparent distribution volume VD ([2]; 20 mg/kg BW DOX equivalent): 0.25 ± 0.11 mL/g | Distribution half-life β t1/2 ([2]; 20 mg/kg BW DOX equivalent): 1.2 ± 0.292 h | Elimination rate constant kg ([2]; 20 mg/kg BW DOX equivalent): 0.08 ± 0.00 h⁻¹ | Plasma clearance CL ([2]; 20 mg/kg BW DOX equivalent): 0.011 ± 0.000 mL/h/g | Plasma to tissue rate constant kpt ([2]; 20 mg/kg BW DOX equivalent): 0.25 ± 0.07 h⁻¹ | Tissue to plasma rate constant ktp ([2]; 20 mg/kg BW DOX equivalent): 0.29 ± 0.07 h⁻¹ | Area under the curve AUC ([2]; 20 mg/kg BW DOX equivalent): 3328.5 ± 100.3 µM·h | Elimination half-life α t1/2 ([2]; 20 mg/kg BW DOX equivalent): 17.5 ± 0.8 h | linearity of pharmacokinetics (in words) ([2]; 10 vs 20 mg/kg BW DOX equivalent): linear pharmacokinetics | bioavailability i.e. AUC [2, 6]: 3328.5 ± 100.3 µM·h | half-life [2, 6]: 17.5 ± 0.8 h | AUC, fold larger than that of CP-DOX (Canine pharmacokinetics): six-fold | plasma half-life, fold greater than that of CP-DOX (Canine pharmacokinetics): three-fold | Apparent distribution volume VD (Canine pharmacokinetics; [7]): 0.02 ± 0.00 mL/g | Distribution half-life β t1/2 (Canine pharmacokinetics; [7]): 1.705 ± 0.822 h | Elimination rate constant kg (Canine pharmacokinetics; [7]): 0.02 ± 0.00 h⁻¹ | Plasma clearance CL (Canine pharmacokinetics; [7]): 0.0003 ± 0.0000 mL/h/g | Plasma to tissue rate constant kpt (Canine pharmacokinetics; [7]): 0.06 ± 0.03 h⁻¹ | Tissue to plasma rate constant ktp (Canine pharmacokinetics; [7]): 0.34 ± 0.17 h⁻¹ | Elimination half-life α t1/2 (Canine pharmacokinetics; cephalic vein, 27 DOX Equiv/m^−2 BSA or 0.9 mg DOX Equiv/kg BW, plasma DOX): 30.8 ± 2.0 h | ALT [3, 8]: 18 IU/L and 21 IU/L | AST [3, 8]: 20 IU/L and 31 IU/L | Alb/Glob Ratio [3, 8]: 1.73 and 1.57 | Albumin [3, 8]: 3.8 g/dL and 3.6 g/dL | Alkaline Phosphatase [3, 8]: 26 IU/L and 31 IU/L | Amylase [3, 8]: 597 IU/L and 677 IU/L | Anion Gap [3, 8]: 21 and 20.4 | Bicarbonate [3, 8]: 22 mmol/L and 21 mmol/L | Bilirubin-Total [3, 8]: <0.2 mg/dL | CK [3, 8]: 141 IU/L and 296 IU/L | Calcium [3, 8]: 10.3 mg/dL and 10.7 mg/dL | Chloride [3, 8]: 109 mmol/L and 111 mmol/L | Cholesterol [3, 8]: 153 mg/dL and 94 mg/dL | Creatinine [3, 8]: 0.7 mg/dL | GGT [3, 8]: <3 IU/L | Globulin [3, 8]: 2.2 g/dL and 2.3 g/dL | Glucose [3, 8]: 90 mg/dL and 82 mg/dL | Lipase [3, 8]: 57 IU/L | Magnesium [3, 8]: 1.9 mg/dL and 2.2 mg/dL | Na/K Ratio [3, 8]: 37 and 33.6 | Osomolality-Calc. [3, 8]: 293.8 mOsm/kg and 293.4 mOsm/kg | Phosphorus [3, 8]: 4.1 mg/dL and 4.7 mg/dL | Potassium [3, 8]: 4 mmol/L and 4.4 mmol/L | Protein-Total [3, 8]: 6 g/dL and 5.9 g/dL | Sodium [3, 8]: 148 mmol/L | Urea Nitrogen [3, 8]: 17 mg/dL and 15 mg/dL | abnormalities in blood serum chemistry (in words) ([3]; one week after infusion): no hematology or serum chemistry abnormalities | transition temperature after drug (DOX) conjugation [4]: 44 °C | ρ = Rg/Rh ([5]; 22 ° C.): 0.62 | Rh ([5]; 22 ° C., DLS): 59.0 nm and 59.00 nm | Nagg ([5]; 22 ° C.): 34.97 | Rg ([5]; 22 ° C.): 36.95 nm | ρ = Rg/Rh ([5]; 37 ° C.): 0.766 | Rh ([5]; 37 ° C., DLS): 45.63 nm | Nagg ([5]; 37 ° C.): 42.04 | Rg ([5]; 37 ° C.): 34.97 nm | nanoparticle formation (in words) ([5]; DLS): form nanoparticles | aggregation (in words) ([5]; body temperature (37° C.)): remain aggregate-free | aggregation (in words) ([5]; room temperature (25° C.)): Neither ABDN-CP-DOX nor ABDH-CP-DOX conjugates aggregate | tumor bearing mice that survived 60 days after treatment (C26 tumors; DOX equivalent dose of 20 mg/kg BW): 50% | tumor growth (in words) (C26 tumors; mouse C26 colon cancer model, single treatment on day 0): significantly slower
